Experiment [1] concerns the target actin (actin stress fibers / actin cytoskeleton of glioma cells). Briefly: cell-based or functional assay.
Another experiment deals with T1, MYC-LC2 (UniProt P78559 2567-2803, limits assumed).
T1 construct: domain: light chain (LC2) subunit; also called LC2 (heterologously expressed, MYC-tagged); not shown: MYC tag
T1 sequence (looked up): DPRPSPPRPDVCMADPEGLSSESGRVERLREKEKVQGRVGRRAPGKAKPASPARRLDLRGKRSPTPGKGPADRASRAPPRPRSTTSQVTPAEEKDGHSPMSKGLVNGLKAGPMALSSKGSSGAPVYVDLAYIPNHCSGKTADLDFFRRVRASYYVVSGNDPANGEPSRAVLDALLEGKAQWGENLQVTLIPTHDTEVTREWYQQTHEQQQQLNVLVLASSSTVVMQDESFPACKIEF
Put plainly: co-immunoprecipitation of heterologously expressed proteins.

This note sets out measurements from patent publication US20140343124A1 (ROYAL INSTITUTION FOR THE ADVANCEMENT OF LEARNING MCGILL …, published 2014).

DRR^ΔPEPE (from UniProt O95990 1-144) yielded a fold decrease in invasiveness in a 3D invasion assay in experiment [1] of 3 fold.

B1: DRR^ΔHRE (other, UniProt O95990 1-144, looked up)
chain: MYSEIQRERADIGGLMARPEYREWNPELIKPKKLLNPVKASRSHQELAAALLMNHRRGLGVDSKPELQRVLEHRRRNQLIKKKKEELEAKRLQCPFEQELLRRQQRLNQLEKPPEKEEDHAPEFIKVRENLRRIATLTSEEREL
notes: also called non-LC2 form of DRR
On to B1, for which the binding result with MYC-LC2 was “no binding”.
